Measured values taken from paper PMC5942583 (Nature structural & molecular biology, 2018).

Target: 15N-labeled WT 2N4R tau (microtubule-associated protein tau, longest adult isoform) (human, UniProt P10636-8 1-441, 15N-labeled)
Assay: NMR titration

B1: DnaJA2 (natural protein)
chain: not shown
- binding result: binds
